From PMC7143960, “Protein Engineering of a Pyridoxal-5′-Phosphate-Dependent L-Aspartate-α-Decarboxylase from Tribolium castaneum for β-Alanine Production” (Molecules, 2020)

What was measured:
[1] = target: T1, TcPanD (PLP-dependent L-aspartate-α-decarboxylase) (Tribolium castaneum, UniProt A7U8C7); assay: enzyme activity versus added PLP; format: biochemical; settings: 0.1 M phosphate pH 7.0, 37 °C, L-aspartate substrate
T1 sequence (A7U8C7 1-540): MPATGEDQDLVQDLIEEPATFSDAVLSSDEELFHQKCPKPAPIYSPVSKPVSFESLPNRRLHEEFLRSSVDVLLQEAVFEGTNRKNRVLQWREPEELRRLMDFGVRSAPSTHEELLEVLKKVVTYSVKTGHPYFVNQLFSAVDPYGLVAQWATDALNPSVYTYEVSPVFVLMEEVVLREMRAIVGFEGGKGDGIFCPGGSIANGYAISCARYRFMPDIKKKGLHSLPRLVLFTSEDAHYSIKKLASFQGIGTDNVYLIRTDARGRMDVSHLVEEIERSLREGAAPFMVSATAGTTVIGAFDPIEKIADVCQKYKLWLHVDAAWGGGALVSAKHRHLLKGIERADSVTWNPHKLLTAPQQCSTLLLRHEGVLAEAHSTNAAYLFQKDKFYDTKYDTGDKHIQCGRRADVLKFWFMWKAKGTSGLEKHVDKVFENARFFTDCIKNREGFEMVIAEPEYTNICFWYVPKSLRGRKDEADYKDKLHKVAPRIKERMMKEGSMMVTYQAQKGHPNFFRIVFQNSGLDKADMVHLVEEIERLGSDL

[2] = tested on: N[C@@H](CC(=O)O)C(=O)O; assay: purified protein; format: biochemical, Tribolium castaneum; settings: 0.1 M phosphate pH 7.0, 37 °C, L-aspartate 0.5-100 mM, apparent parameters
[3] = substrate: N[C@@H](CC(=O)O)C(=O)O; assay: purified protein; settings: 0.1 M phosphate pH 7.0, 37 °C, L-aspartate 0.5-100 mM, apparent parameters

Question: With `Cc1ncc(COP(=O)(O)O)c(C=O)c1O` [pyridoxal 5’-phosphate] as the molecule, how does the “enzyme activity versus added PLP” value [1] read?
Answer: the enzymatic activities of the two proteins reached the highest levels under the treatment

Question: Which results are given for “TcPanD (PLP-dependent L-aspartate-α-decarboxylase) (Tribolium castaneum; K305S/R98H)”?
Answer: Km [2]: 1230 µM; Vmax [2]: 7.05 µmol/min/mg; kcat [2]: 7.64 s⁻¹; kcat/Km [2]: 6210 M⁻¹ s⁻¹

B1: TcPanD (PLP-dependent L-aspartate-α-decarboxylase) (Tribolium castaneum) (protein)
chain: T1 sequence (A7U8C7 1-540)
Question: Which Km [3] does the source give for B1 here?
Answer: 1350 µM

Question: And the Vmax [3]?
Answer: 2.88 µmol/min/mg

Question: And the kcat [3]?
Answer: 3.12 s⁻¹

Question: What about the kcat/Km [3] of the same molecule?
Answer: 2310 M⁻¹ s⁻¹
